Data from paper PMC5922973, “Topoisomerase VI senses and exploits both DNA crossings and bends to facilitate strand passage” (eLife, 2018).

Legend:
[1] = target: the molecule itself; experiment: FRET or BRET; bulk FRET between Alexa555 and Alexa647 on Cys180 of the ATP gate; 200 nM topo II, 0 or 100 uM bp supercoiled DNA, 100 mM KCl, 10 mM Tris-HCl pH 7.9, 5 mM MgCl2, 0 or 1 mM AMPPNP
[2] = target: the molecule itself; experiment: FRET or BRET; bulk FRET between Alexa555 and Alexa647 on Cys155 of the two Top6B in the holoenzyme; 200 nM topo VI with 100 uM bp sheared salmon-sperm (short linear) DNA, before and over time after 1 mM AMPPNP; 50 mM potassium glutamate, 20 mM HEPES-KOH pH 7.5, 10 mM MgCl2

B1: S. cerevisiae topoisomerase II 1-1177 cyslite-180C, Alexa555/Alexa647-labeled (enzyme, Saccharomyces cerevisiae, UniProt P06786 1-1177, looked up)
chain: MSTEPVSASDKYQKISQLEHILKRPDTYIGSVETQEQLQWIYDEETDAMIEKNVTIVPGLFKIFDEILVNAADNKVRDPSMKRIDVNIHAEEHTIEVKNDGKGIPIEIHNKENIYIPEMIFGHLLTSSNYDDDEKKVTGGRNGYGAKLCNIFSTEFILETADLNVGQKYVQKWENNMSICHPPKITSYKKGPSYTKVTFKPDLTRFGMKELDNDILGVMRRRVYDINGSVRDINVYLNGKSLKIRNFKNYVELYLKSLEKKRQLDNGEDGAAKSDIPTILYERINNRWEVAFAVSDISFQQISFVNSIATTMGGTHVNYITDQIVKKISEILKKKKKKSVKSFQIKNNMFIFINCLIENPAFTSQTKEQLTTRVKDFGSRAEIPLEYINKIMKTDLATRMFEIADANEENALKKSDGTRKSRITNYPKLEDANKAGTKEGYKCTLVLTEGDSALSLAVAGLAVVGRDYYGAYPLRGKMLNVREASADQILKNAEIQAIKKIMGLQHRKKYEDTKSLRYGHLMIMTDQDHDGSHIKGLIINFLESSFPGLLDIQGFLLEFITPIIKVSITKPTKNTIAFYNMPDYEKWREEESHKFTWKQKYYKGLGTSLAQEVREYFSNLDRHLKIFHSLQGNDKDYIDLAFSKKKADDRKEWLRQYEPGTVLDPTLKEIPISDFINKELILFSLADNIRSIPNVLDGFKPGQRKVLYGCFKKNLKSELKVAQLAPYVSEATAYHHGEQSLAQTIIGLAQNFVGSNNIYLLLPNGAFGTRATGGKDAAAARYIYTELNKLTRKIFHPADDPLYKYIQEDEKTVEPEWYLPILPMILVNGAEGIGTGWSTYIPPFNPLEIIKNIRHLMNDEELEQMHPWFRGWTGTIEEIEPLRYRMYGRIEQIGDNVLEITELPARTWTSTIKEYLLLGLSGNDKIKPWIKDMEEQHDDNIKFIITLSPEEMAKTRKIGFYERFKLISPISLMNMVAFDPHGKIKKYNSVNEILSEFYYVRLEYYQKRKDHMSERLQWEVEKYSFQVKFIKMIIEKELTVTNKPRNAIIQELENLGFPRFNKEGKPYYGSPNDEIAEQINDVKGATSDEEDEESSHEDTENVINGPEELYGTYEYLLGMRIWSLTKERYQKLLKQKQEKETELENLLKLSAKDIWNTDLKAFEVGYQEFLQRDAEAR
modifications: Alexa Fluor 555 C2 maleimide or Alexa Fluor 647 C2 maleimide on the native cysteine 180
notes: Saccharomyces cerevisiae topoisomerase II, C-terminal truncation coding for residues 1-1177 (Schmidt et al., 2012), with four cysteines changed to alanine; also called ScTop2^ΔCTR-cyslite-180C; topo II; not shown: His6, N-terminal, cleaved
binding result [1]: binds

B2: M. mazei Top6B cyslite-155C, Alexa555/Alexa647-labeled, in the topo VI holoenzyme (enzyme, Methanosarcina mazei)
chain: METPIAEELAKKQKSISVAEFFEKNRQILGFDSAPRSLITTVKEAVDNALDACEEAGILPDILVQVERTGPDYVTVIIEDNGPGIVREQIPKVFAKLLYGSRFHALKQSRGQQGIGISAAVLYAQMTAGRHTKILSKTSPTAPAHYYELMINTSCNEPDILVDEVRDWFRPHGTQIELEMRAAYVKGRRQSIYEYLKATAIVNPHARITLIDPDGNEEVFERATDKMPEPAEEILPHPEGIELGTLMKMLHYTERQKLAPFLRYSFSKIGLLTAEEIAKAAGLDPEIDPHALGRHEARKLIEAFEKVKIMAPPTDALSPIGEDLIYRGLEKETTVDFIATSTRKPAVYSGNPFVVEVGMAYGGNLPKEEKISIMRFANRVPLLYQQGGCVTTHAVEDIKWKQYGLNQPGGGIPVGPVILLIHVASINVPFTSESKDAIADIPVIKEEIDLAIKEVARKLKHYLSKQSNLKKRREKEIIITKVLPKLAAKVAHVLEKDVPDINPVVAKIMGNLLVHRVIKNNGDGTVDVAIKVKNFGTSAYSFRVHEMLPAKVSGAKPEPKVVTMGNDYDYVWDISASAGSSKVLSYKIESASEEELQKLPQLIVEGIEEELVTGAKAFKGV
modifications: Alexa Fluor 555 C2 maleimide or Alexa Fluor 647 C2 maleimide on Cys155
notes: Top6B of Methanosarcina mazei topo VI, 'cys-lite' with Thr155 changed to cysteine; Stood in the assay as part of the A2B2 holoenzyme with Top6A; population is a mix of donor-acceptor (50%), acceptor-acceptor (25%) and donor-donor (25%) labeled enzymes; also called topo VI^cyslite-155C; TopoVI^cyslite-155C; not shown: His6, N-terminal, cleaved
binding result [2]: binds
